The source of these data is PMC5736220.

The target of the assay is protocadherin-15 EC1+2 R113G, His-tagged (mouse), Q99PJ1. The assay can be described thus: thermal scanning (thermal stability shift assay with SYPRO orange); pcdh15 fixed at 0.1 mg/mL (~4 μM), cdh23 0.1 to 0.5 mg/mL (~4 to 20 μM; cdh23:pcdh15 1:1 to 5:1); SEC buffer (20 mM Tris-HCl pH 7.5, 150 mM KCl, 50 mM NaCl, 2 mM CaCl2); 10 to 95°C in 0.2°C steps, 5 s equilibration; read-out: shift of the Tm of pcdh15 (ΔTm). Conditions: remark: other sources report otherwise.

B1: cadherin-23 EC1+2, wild type, His-tagged, Q99PF4 24-228 (domain or fragment)
chain: QVNRLPFFTNHFFDTYLLISEDTPVGSSVTQLLARDMDNDPLVFGVSGEEASRFFAVEPDTGVVWLRQPLDRETKSEFTVEFSVSDHQGVITRKVNIQVGDVNDNAPTFHNQPYSVRIPENTPVGTPIFIVNATDPDLGAGGSVLYSFQPPSPFFAIDSARGIVTVIQELDYEVTQAYQLTVNATDQDKTRPLSTLANLAIIITD
Regarding B1, the ΔTm of pcdh15 at cdh23:pcdh15 1:1 was -0.6 °C, the ΔTm of pcdh15 at cdh23:pcdh15 2:1 was determined as 0.2 °C, the ΔTm of pcdh15 at cdh23:pcdh15 3:1 was found to be 1 °C and the ΔTm of pcdh15 at cdh23:pcdh15 4:1 amounted to 1.3 °C. Moreover, the ΔTm of pcdh15 at cdh23:pcdh15 5:1 amounted to 1.5 °C.
